From patent US20200297760A1 (JUNO THERAPEUTICS, published 2020) come the findings set out here.

B1: IFWVKRGRK (peptide)
peptide: IFWVKRGRK
notes: synthetic 9-mer of the CD28-4-1BB junction; mutation: none
B2: IFWVLRGRK (peptide)
peptide: IFWVLRGRK
notes: synthetic 9-mer variant; the entry already carries the change
B3: IFWVQRGSK (peptide)
peptide: IFWVQRGSK
notes: synthetic 9-mer variant; the entry already carries the changes
B4: IIFWVKRGH (peptide)
peptide: IIFWVKRGH
notes: as for B2
B5: IIFWVQRGS (peptide)
peptide: IIFWVQRGS
notes: as for B3
B6: IIFWVQRGN (peptide)
peptide: IIFWVQRGN
notes: as for B3
B7: FWVKRGRKK (peptide)
peptide: FWVKRGRKK
notes: as for B1
B8: FWVKRGAKK (peptide)
peptide: FWVKRGAKK
notes: as for B2
B9: FWVHRGRKK (peptide)
peptide: FWVHRGRKK
notes: as for B2
B10: FWVARGRKK (peptide)
peptide: FWVARGRKK
notes: as for B2
B11: FWVKRGLKK (peptide)
peptide: FWVKRGLKK
notes: as for B2
B12: FWVKRGNKK (peptide)
peptide: FWVKRGNKK
notes: as for B2

In the first assay the target is T1, HLA-A*02:01 (human).
T1 construct: recombinant MHC class I molecule incubated with the synthetic peptide (REVEAL, ProImmune)
Kind of assay: REVEAL MHC-peptide binding assay, recombinant HLA. The method, then:
(§1) Specifically, assessment was of a series of overlapping 9-mer peptides derived from the sequence […] (set forth in SEQ ID NO: 7), which contains a portion of the CD28 transmembrane domain and 4-1BB costimulatory domain spanning the junction between the domains (bond joining the two amino acids noted in underline). In addition, a series of overlapping 9-mer peptides of each of a number of different variants of this portion also were assessed, each variant containing a mutation or mutations in this region as described in Example 2.
(§2) The various 9-mer overlapping peptides were synthesized and their purity tested by MALDI-TOF Mass Spectrometry.
Regarding B1, the “In Vitro Score” value is 4.5 % of positive control peptide.

On to B2, for which the “In Vitro Score” value was 2.9 % of positive control peptide.

Consider B3, for which the “In Vitro Score” value is 33.5 % of positive control peptide.

B4: the “In Vitro Score” value is 5.3 % of positive control peptide.

Take B5: the “In Vitro Score” value is 22.4 % of positive control peptide.

Take B6: the “In Vitro Score” value was 13 % of positive control peptide.

As for B7, the “In Vitro Score” value was 3.5 % of positive control peptide.

Take B8: the “In Vitro Score” value is 4.3 % of positive control peptide.

With B9, the “In Vitro Score” value was 1.6 % of positive control peptide.

Consider B10, for which the “In Vitro Score” value is 13.5 % of positive control peptide.

For another assay, the target named is T2, HLA-A*03:01 (human).
T2 construct: recombinant MHC class I molecule incubated with the synthetic peptide (REVEAL, ProImmune)
Kind of assay: REVEAL MHC-peptide binding assay, recombinant HLA. On the procedure: as §1, §2
Regarding B1, the “In Vitro Score” value is 20.5 % of positive control peptide.

For B2, the “In Vitro Score” value was 19.5 % of positive control peptide.

For B3, the “In Vitro Score” value was 20.3 % of positive control peptide.

As for B4, the “In Vitro Score” value was 26.6 % of positive control peptide.

With B5, the “In Vitro Score” value was 4.5 % of positive control peptide.

For B6, the “In Vitro Score” value is 3.6 % of positive control peptide.

On to B7, for which the “In Vitro Score” value is 2.2 % of positive control peptide.

With B11, the “In Vitro Score” value is 2.7 % of positive control peptide.

Turning to B12, the “In Vitro Score” value is 3.6 % of positive control peptide.

On to B8, for which the “In Vitro Score” value was 4.7 % of positive control peptide.

Take B9: the “In Vitro Score” value was 3.6 % of positive control peptide.

As for B10, the “In Vitro Score” value is 5 % of positive control peptide.

A further assay has as its target HLA-A*11:01 (recombinant MHC class I molecule) (human). Kind of assay: REVEAL MHC-peptide binding assay, recombinant HLA-A*11:01. The method, then: as §1, §2
Consider AFIIFWVKR [Synthetic peptide AFIIFWVKR], for which the “In Vitro Score” value was 25.9 score, % of positive control peptide.

Take AFIIFWVQR [Synthetic peptide AFIIFWVQR]: the “In Vitro Score” value is 15 score, % of positive control peptide.

Turning to AFIIFWVLR [Synthetic peptide AFIIFWVLR], the “In Vitro Score” value was 17.2 score, % of positive control peptide.

With IIFWVKRGH [Synthetic peptide IIFWVKRGH], the “In Vitro Score” value was 19.5 score, % of positive control peptide.

As to IIFWVQRGS [Synthetic peptide IIFWVQRGS], the “In Vitro Score” value is 16.9 score, % of positive control peptide.

Turning to IIFWVQRGN [Synthetic peptide IIFWVQRGN], the “In Vitro Score” value was 29 score, % of positive control peptide.

Regarding VAFIIFWVA [Synthetic peptide VAFIIFWVA], the “In Vitro Score” value was 2.8 score, % of positive control peptide.

For the molecule VAFIIFWVQ [Synthetic peptide VAFIIFWVQ], the “In Vitro Score” value was 3.9 score, % of positive control peptide.

VAFIIFWVL [Synthetic peptide VAFIIFWVL]: the “In Vitro Score” value is 0.2 score, % of positive control peptide.

For VAFIIFWVH [Synthetic peptide VAFIIFWVH], the “In Vitro Score” value is 12.3 score, % of positive control peptide.

On to WVKRGRKKL [Synthetic peptide WVKRGRKKL], for which the “In Vitro Score” value is 4.8 score, % of positive control peptide.

As for WVKRGRKKS [Synthetic peptide WVKRGRKKS], the “In Vitro Score” value is 6.7 score, % of positive control peptide.

As to WVLRGRKKL [Synthetic peptide WVLRGRKKL], the “In Vitro Score” value is 3.2 score, % of positive control peptide.

Turning to WVHRGRKKL [Synthetic peptide WVHRGRKKL], the “In Vitro Score” value was 5.6 score, % of positive control peptide.

For the molecule WVSRGRKKL [Synthetic peptide WVSRGRKKL], the “In Vitro Score” value is 4.4 score, % of positive control peptide.

As for WVKRGLKKL [Synthetic peptide WVKRGLKKL], the “In Vitro Score” value is 22.1 score, % of positive control peptide.

Regarding WVQRGAKKL [Synthetic peptide WVQRGAKKL], the “In Vitro Score” value was 3.8 score, % of positive control peptide.

For WVQRGSKKL [Synthetic peptide WVQRGSKKL], the “In Vitro Score” value is 5.9 score, % of positive control peptide.

As to IFWVKRGRK [Synthetic peptide IFWVKRGRK], the “In Vitro Score” value is 29.3 score, % of positive control peptide.

As for IFWVLRGRK [Synthetic peptide IFWVLRGRK], the “In Vitro Score” value was 29.3 score, % of positive control peptide.

Regarding IFWVQRGSK [Synthetic peptide IFWVQRGSK], the “In Vitro Score” value is 103 score, % of positive control peptide.

For FWVKRGRKK [Synthetic peptide FWVKRGRKK], the “In Vitro Score” value was 6.5 score, % of positive control peptide.

On to FWVKRGNKK [Synthetic peptide FWVKRGNKK], for which the “In Vitro Score” value was 7.3 score, % of positive control peptide.

With FWVSRGRKK [Synthetic peptide FWVSRGRKK], the “In Vitro Score” value was 6.3 score, % of positive control peptide.

For the molecule FWVKRGAKK [Synthetic peptide FWVKRGAKK], the “In Vitro Score” value was 13.2 score, % of positive control peptide.

For FWVQRGAKK [Synthetic peptide FWVQRGAKK], the “In Vitro Score” value was 18.3 score, % of positive control peptide.

Regarding FWVQRGNKK [Synthetic peptide FWVQRGNKK], the “In Vitro Score” value was 5.9 score, % of positive control peptide.

For the molecule FWVHRGRKK [Synthetic peptide FWVHRGRKK], the “In Vitro Score” value is 5.6 score, % of positive control peptide.

Turning to FWVKRGHKK [Synthetic peptide FWVKRGHKK], the “In Vitro Score” value is 27.6 score, % of positive control peptide.

As for FWVQRGSKK [Synthetic peptide FWVQRGSKK], the “In Vitro Score” value was 6.8 score, % of positive control peptide.

Consider FWVLRGRKK [Synthetic peptide FWVLRGRKK], for which the “In Vitro Score” value was 5 score, % of positive control peptide.

In the case of FWVKRGSKK [Synthetic peptide FWVKRGSKK], the “In Vitro Score” value is 5.6 score, % of positive control peptide.

For FWVKRGLKK [Synthetic peptide FWVKRGLKK], the “In Vitro Score” value is 25.3 score, % of positive control peptide.

Consider FWVQRGRKK [Synthetic peptide FWVQRGRKK], for which the “In Vitro Score” value is 5.7 score, % of positive control peptide.

On to FIIFWVKRG [Synthetic peptide FIIFWVKRG], for which the “In Vitro Score” value was 0.4 score, % of positive control peptide.

Take FIIFWVLRG [Synthetic peptide FIIFWVLRG]: the “In Vitro Score” value was 2.4 score, % of positive control peptide.

On to FIIFWVQRG [Synthetic peptide FIIFWVQRG], for which the “In Vitro Score” value was 1.5 score, % of positive control peptide.

On to FIIFWVSRG [Synthetic peptide FIIFWVSRG], for which the “In Vitro Score” value is 5.1 score, % of positive control peptide.

Another assay concerns the target HLA-B*08:01 (recombinant MHC class I molecule) (human). Kind of assay: REVEAL MHC-peptide binding assay, recombinant HLA-B*08:01. On the procedure: as §1, §2
For AFIIFWVKR [Synthetic peptide AFIIFWVKR], the “In Vitro Score” value is 1.9 score, % of positive control peptide.

Regarding AFIIFWVQR [Synthetic peptide AFIIFWVQR], the “In Vitro Score” value is 0 score, % of positive control peptide.

As to AFIIFWVLR [Synthetic peptide AFIIFWVLR], the “In Vitro Score” value was 0.2 score, % of positive control peptide.

For the molecule IIFWVKRGH [Synthetic peptide IIFWVKRGH], the “In Vitro Score” value is 0.1 score, % of positive control peptide.

For IIFWVQRGS [Synthetic peptide IIFWVQRGS], the “In Vitro Score” value was 0.1 score, % of positive control peptide.

Take IIFWVQRGN [Synthetic peptide IIFWVQRGN]: the “In Vitro Score” value is 0 score, % of positive control peptide.

Take VAFIIFWVA [Synthetic peptide VAFIIFWVA]: the “In Vitro Score” value is 0 score, % of positive control peptide.

For VAFIIFWVQ [Synthetic peptide VAFIIFWVQ], the “In Vitro Score” value is 0.2 score, % of positive control peptide.

Take VAFIIFWVL [Synthetic peptide VAFIIFWVL]: the “In Vitro Score” value is 0 score, % of positive control peptide.

Turning to VAFIIFWVH [Synthetic peptide VAFIIFWVH], the “In Vitro Score” value is 0 score, % of positive control peptide.

For WVKRGRKKL [Synthetic peptide WVKRGRKKL], the “In Vitro Score” value is 28.5 score, % of positive control peptide.

Consider WVKRGRKKS [Synthetic peptide WVKRGRKKS], for which the “In Vitro Score” value is 4.3 score, % of positive control peptide.

For the molecule WVLRGRKKL [Synthetic peptide WVLRGRKKL], the “In Vitro Score” value was 4 score, % of positive control peptide.

On to WVHRGRKKL [Synthetic peptide WVHRGRKKL], for which the “In Vitro Score” value is 19.2 score, % of positive control peptide.

Regarding WVSRGRKKL [Synthetic peptide WVSRGRKKL], the “In Vitro Score” value is 6.2 score, % of positive control peptide.

With WVKRGLKKL [Synthetic peptide WVKRGLKKL], the “In Vitro Score” value is 65.7 score, % of positive control peptide.

On to WVQRGAKKL [Synthetic peptide WVQRGAKKL], for which the “In Vitro Score” value is 11.4 score, % of positive control peptide.

Consider IFWVKRGRK [Synthetic peptide IFWVKRGRK], for which the “In Vitro Score” value was 0.4 score, % of positive control peptide.

IFWVLRGRK [Synthetic peptide IFWVLRGRK]: the “In Vitro Score” value is 0 score, % of positive control peptide.

IFWVQRGSK [Synthetic peptide IFWVQRGSK]: the “In Vitro Score” value was 0 score, % of positive control peptide.

Consider FWVKRGRKK [Synthetic peptide FWVKRGRKK], for which the “In Vitro Score” value was 0 score, % of positive control peptide.

FWVKRGNKK [Synthetic peptide FWVKRGNKK]: the “In Vitro Score” value was 0.1 score, % of positive control peptide.

As for FWVSRGRKK [Synthetic peptide FWVSRGRKK], the “In Vitro Score” value was 0 score, % of positive control peptide.

Regarding FWVKRGAKK [Synthetic peptide FWVKRGAKK], the “In Vitro Score” value was 0.3 score, % of positive control peptide.

For FWVQRGAKK [Synthetic peptide FWVQRGAKK], the “In Vitro Score” value is 0 score, % of positive control peptide.

Turning to FWVQRGNKK [Synthetic peptide FWVQRGNKK], the “In Vitro Score” value was 0 score, % of positive control peptide.

As to FWVHRGRKK [Synthetic peptide FWVHRGRKK], the “In Vitro Score” value is 0 score, % of positive control peptide.

Regarding FWVKRGHKK [Synthetic peptide FWVKRGHKK], the “In Vitro Score” value is 0.4 score, % of positive control peptide.

As for FWVQRGSKK [Synthetic peptide FWVQRGSKK], the “In Vitro Score” value was 0 score, % of positive control peptide.

FWVLRGRKK [Synthetic peptide FWVLRGRKK]: the “In Vitro Score” value is 0 score, % of positive control peptide.

For the molecule FWVARGRKK [Synthetic peptide FWVARGRKK], the “In Vitro Score” value is 0 score, % of positive control peptide.

Regarding FWVKRGSKK [Synthetic peptide FWVKRGSKK], the “In Vitro Score” value was 0.1 score, % of positive control peptide.

For FWVKRGLKK [Synthetic peptide FWVKRGLKK], the “In Vitro Score” value is 6.3 score, % of positive control peptide.

On to FWVQRGRKK [Synthetic peptide FWVQRGRKK], for which the “In Vitro Score” value was 1.9 score, % of positive control peptide.

As for FIIFWVKRG [Synthetic peptide FIIFWVKRG], the “In Vitro Score” value was 0.1 score, % of positive control peptide.

Take FIIFWVLRG [Synthetic peptide FIIFWVLRG]: the “In Vitro Score” value is 0.2 score, % of positive control peptide.

In the case of FIIFWVQRG [Synthetic peptide FIIFWVQRG], the “In Vitro Score” value was 0.6 score, % of positive control peptide.

For the molecule FIIFWVSRG [Synthetic peptide FIIFWVSRG], the “In Vitro Score” value was 0.4 score, % of positive control peptide.
